For 13 molecules, Kd, binding result and IC50 results are on record in patent US20200297842A1 (published 2020).

As a reminder, the IC50 is the point on the concentration scale where inhibition reaches its midpoint.

Assay [1] has as its target T1, Fc tagged human SIRPα (ACRO # SIG-H5251, genotype variant 1) (human, UniProt P78324 31-370, limits assumed).
T1 construct: Bought protein; also called Fc tagged human SIRP alpha; recombinant human SIRPα; not shown: Fc tag
As to the kind of experiment: ELISA, plate-coated Fc tagged human SIRPα; apparent Kd. The procedure:
The binding of anti-SIRP monoclonal antibodies (mAbs) of the present disclosure to SIRP alpha (SIRPα) was determined by solid phase ELISA using an Fc tagged human SIRP alpha. Binding by soluble anti-SIRP antibodies was measured in vitro.
Fc tagged human SIRPα (ACRO # SIG-H5251, genotype variant 1) is adsorbed to high-binding microtiter plates at a concentration of 1 μg/ml diluted in phosphate buffered saline (PBS) overnight at 4° C. The coating solution is removed, the wells are washed and then blocked with 75% casein in PBS containing 0.5% Tween 20 (PBST) for 60 minutes at room temperature while shaking. Blocking solution is removed, the wells are washed and incubated for 60 minutes at room temperature while shaking with either murine or human anti-SIRP mAbs diluted in PBST at a starting concentration of 30 μg/ml and reducing the concentration in 3-fold serial dilutions. Wells are washed three times with PBST and incubated for 60 minutes at room temperature while shaking with an HRP-labeled donkey anti-mouse or anti-human secondary antibody (Jackson ImmunoResearch Laboratories) diluted 1:10,000 in PBST. The wells are washed and then incubated with peroxidase substrate and the absorbance at 450 nm measured. The apparent affinities were calculated using a non-linear fit model (GraphPad Prism).
Background: ELISA stands for enzyme-linked immunosorbent assay.

For assay [2], the target named is T2, Fc tagged human SIRPγ (ACRO # SIG-H5253) (human, UniProt Q9P1W8 29-360).
T2 construct: Bought protein; it includes the transmembrane and cytoplasmic part, which a soluble Fc fusion would not carry; also called Fc tagged human SIRP gamma; recombinant human SIRP gamma; not shown: Fc tag
In words: ELISA, plate-coated Fc tagged human SIRPγ; apparent Kd. The method, then: The binding of anti-SIRP antibodies of the present disclosure to SIRP gamma (SIRPγ) was determined by ELISA using an Fc tagged human SIRPγ. Binding by soluble anti-SIRP antibodies was measured in vitro.
(§1) Fc tagged human SIRPγ (ACRO # SIG-H5253) is adsorbed to high-binding microtiter plates at a concentration of 1 μg/ml in phosphate buffered saline (PBS) overnight at 4° C. The coating solution is removed, the wells are washed and then blocked with 75% casein in PBS containing 0.5% Tween 20 (PBST) for 60 minutes at room temperature while shaking. Blocking solution is removed, the wells are washed and incubated for 60 minutes at room temperature while shaking with anti-SIRP mAbs diluted in PBST at a starting concentration of 30 μg/ml and reducing the concentration in 3-fold serial dilutions. Wells are washed three times with PBST and incubated for 60 minutes at room temperature while shaking with an HRP labeled donkey anti-mouse or anti-human secondary antibody (Jackson ImmonResearch Laboratories) diluted 1:10,000 in PBST. The wells are washed and then incubated with peroxidase substrate and the absorbance at 450 nm determined. The apparent affinities were calculated using a non-linear fit model (GraphPad Prism).

Assay [3] concerns the target T2, Fc tagged human SIRPγ (ACRO # SIG-H5253). As to the kind of experiment: ELISA, plate-coated Fc tagged human SIRPγ. The method, then: as §1
The target is the same in assay [4]. As to the kind of experiment: blocking ELISA: mAb with human SIRPγ (ACRO # SIG-H5253) on plate-coated HIS tagged human CD47. The method, then: HIS tagged human CD47 (ACRO # CD7-H5227) is adsorbed to high-binding microtiter plates at a concentration of 2 μg/ml diluted in PBS overnight at 4° C. The coating solution is removed, the wells are washed and then blocked with 75% casein in PBS containing 0.5% Tween 20 (PBST) for 60 minutes at room temperature while shaking. Blocking solution is removed, the wells are washed and incubated for 60 minutes at room temperature while shaking with anti-SIRP mAbs diluted in PBST at a starting concentration of 30 μg/ml and reducing the concentration in 3 fold serial dilutions and 0.5 μg/ml of human SIRPγ (ACRO # SIG-H5253). Wells are washed three times with PBST and incubated for 60 minutes at room temperature while shaking with an HRP labeled donkey anti-mouse or anti-human secondary antibody (Jackson ImmunoResearch Laboratories) diluted 1:20,000 in PBST. The wells are washed and then incubated with peroxidase substrate and the absorbance at 450 nm determined. The IC₅₀ was calculated using a non-linear fit model (GraphPad Prism).

T2 sequence (Q9P1W8 29-360 limits assumed): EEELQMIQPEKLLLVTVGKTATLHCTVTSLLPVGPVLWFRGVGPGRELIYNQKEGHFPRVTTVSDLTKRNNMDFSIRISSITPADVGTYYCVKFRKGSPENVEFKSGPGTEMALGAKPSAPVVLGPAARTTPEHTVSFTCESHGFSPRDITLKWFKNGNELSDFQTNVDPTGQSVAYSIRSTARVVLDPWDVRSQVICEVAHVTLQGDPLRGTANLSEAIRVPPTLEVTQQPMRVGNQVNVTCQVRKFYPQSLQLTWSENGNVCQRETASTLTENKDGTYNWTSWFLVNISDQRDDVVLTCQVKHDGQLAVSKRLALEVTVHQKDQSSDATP
T1 sequence (P78324 31-370 limits assumed, change not shown, form in doubt): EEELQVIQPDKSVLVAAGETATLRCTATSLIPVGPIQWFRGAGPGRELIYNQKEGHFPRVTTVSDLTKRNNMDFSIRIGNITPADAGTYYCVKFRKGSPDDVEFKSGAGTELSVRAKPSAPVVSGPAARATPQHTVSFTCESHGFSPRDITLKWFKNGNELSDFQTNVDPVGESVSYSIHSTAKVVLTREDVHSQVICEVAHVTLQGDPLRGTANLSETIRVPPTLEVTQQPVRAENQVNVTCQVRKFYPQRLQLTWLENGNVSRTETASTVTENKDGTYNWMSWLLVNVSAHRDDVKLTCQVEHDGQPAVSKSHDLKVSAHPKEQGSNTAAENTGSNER

B1: SIRP11 (antibody, human IgG4 S228P, kappa, V domains shown)
VH: QVQLVQSGAEVKKPGASVKVSCKASGYSFTDYFLNWVRQAPGQGLEWMGRINPYNGDSFINQNFRDRVTMTRDTSTSTVYMELSSLRSEDTAVYYCARGGYDGYFIAYFDYWGAGTTVTVSS
VL: DIQMTQSPSSLSASVGDRVTITCKASQDINSHLSWYQQKPGKAPKLLIYRANRLATGVPSRFSGSGSGTDFTFTISSLQPEDIATYYCLQYDEFPYTFGGGTKLEIKR
notes: shares the heavy-chain CDRs of SIRP4
As for B1, the Kd in assay [1] worked out at 0.194 nM; in assay [2], 7.22 nM.

B2: SIRP17 (antibody, human IgG4 S228P, kappa, V domains shown)
VH: EVQLVQSGAEVKKPGESLKISCKGSGYSFTDYFLNWVRQMPGKGLEWMGRINPYNGDSFINQNFRDQVTISADKSISTAYLQWSSLKASDTAMYYCARGGYDGYFIAYFDYWGAGTTVTVSS
VL: DIQMTQSPSSLSASVGDRVTITCKASQDINSHLSWYQQKPGKAPKLLIYRANRLATGVPSRFSGSGSGTDFTFTISSLQPEDIATYYCLQYDEFPYTFGGGTKLEIKR
Take B2: the Kd in assay [1] was 0.326 nM; in assay [2], more than 15 nM.

B3: SIRP21 (antibody, human IgG4 S228P, kappa, V domains shown)
VH: QVQLVQSGAEVKKPGASVKVSCKASGYSFTDYFLNWVRQAPGQGLEWMGRINPYNGDSFINQNFRDRVTMTVDTSTSTVYMELSSLRSEDTAVYYCARGGYDGYFIAYFDYWGAGTTVTVSS
VL: DIQMTQSPSSLSASVGDRVTITCKASQDINSHLSWYQQKPGKAPKLLIYRANRLATGVPSRFSGSGSGTDFTFTISSLEYEDIATYYCLQYDEFPYTFGGGTKLEIKR
In the case of B3, the Kd in assay [1] was 0.274 nM; in assay [2] it was more than 21 nM.

B4: SIRP16 (antibody, human IgG4 S228P, kappa, V domains shown)
VH: QVQLVQSGAEVKKPGSSVKVSCKASGYSFTDYFLNWVRQAPGQGLEWMGRINPYNGDSFINQNFRDRVTITADKSTSTAYMELSSLRSEDTAVYYCARGGYDGYFIAYFDYWGAGTTVTVSS
VL: DIQMTQSPSSLSASVGDRVTITCKASQDINSHLSWYQQKPGKAPKLLIYRANRLATGVPSRFSGSGSGTDFTFTISSLQPEDIATYYCQQYDEFPYTFGGGTKLEIKR
Consider B4, for which the Kd in assay [1] is more than 40 nM.

B5: SIRP13 (antibody, human IgG4 S228P, kappa, V domains shown)
VH: QVQLVQSGAEVKKPGASVKVSCKASGYSFTDYFLNWVRQAPGQGLEWMGRINPYNGDSFINQNFRDRVTMTRDTSTSTVYMELSSLRSEDTAVYYCARGGYDGYFIAYFDYWGAGTTVTVSS
VL: DIQMTQSPSSLSASVGDRVTITCKASQDINSHLSWYQQKPGKAPKLLIYRANRLATGVPSRFSGSGSGTDFTFTISSLQPEDIATYYCQQYDEFPYTFGGGTKLEIKR
Turning to B5, the binding result in assay [3] was “no binding (tested: 30 µg/ml)”. Moreover, the Kd in assay [1] amounted to 1.56 nM.

B6: SIRP15 (antibody, human IgG4 S228P, kappa, V domains shown)
VH: QVQLVQSGAEVKKPGSSVKVSCKASGYSFTDYFLNWVRQAPGQGLEWMGRINPYNGDSFINQNFRDRVTITADKSTSTAYMELSSLRSEDTAVYYCARGGYDGYFIAYFDYWGAGTTVTVSS
VL: DIQMTQSPSSLSASVGDRVTITCKASQDINSHLSWYQQKPGKAPKLLIYRANRLATGVPSRFSGSGSGTDFTFTISSLEYEDIATYYCLQYDEFPYTFGGGTKLEIKR
For the molecule B6, the Kd in assay [1] is 0.608 nM; in assay [2], more than 14 nM.

B7: SIRP20 (antibody, human IgG4 S228P, kappa, V domains shown)
VH: QVQLVQSGAEVKKPGASVKVSCKASGYSFTDYFLNWVRQAPGQGLEWMGRINPYNGDSFINQNFRDRVTMTVDTSTSTVYMELSSLRSEDTAVYYCARGGYDGYFIAYFDYWGAGTTVTVSS
VL: DIQMTQSPSSLSASVGDRVTITCKASQDINSHLSWYQQKPGKAPKLLIYRANRLATGVPSRFSGSGSGTDFTFTISSLQPEDIATYYCLQYDEFPYTFGGGTKLEIKR
B7: the Kd in assay [1] was 0.157 nM; in assay [2], more than 29 nM.

B8: SIRP18 (antibody, human IgG4 S228P, kappa, V domains shown)
VH: EVQLVQSGAEVKKPGESLKISCKGSGYSFTDYFLNWVRQMPGKGLEWMGRINPYNGDSFINQNFRDQVTISADKSISTAYLQWSSLKASDTAMYYCARGGYDGYFIAYFDYWGAGTTVTVSS
VL: DIQMTQSPSSLSASVGDRVTITCKASQDINSHLSWYQQKPGKAPKLLIYRANRLATGVPSRFSGSGSGTDFTFTISSLEYEDIATYYCLQYDEFPYTFGGGTKLEIKR
Regarding B8, the Kd in assay [1] is 0.364 nM; in assay [2], more than 34 nM.

B9: SIRP14 (antibody, human IgG4 S228P, kappa, V domains shown)
VH: QVQLVQSGAEVKKPGSSVKVSCKASGYSFTDYFLNWVRQAPGQGLEWMGRINPYNGDSFINQNFRDRVTITADKSTSTAYMELSSLRSEDTAVYYCARGGYDGYFIAYFDYWGAGTTVTVSS
VL: DIQMTQSPSSLSASVGDRVTITCKASQDINSHLSWYQQKPGKAPKLLIYRANRLATGVPSRFSGSGSGTDFTFTISSLQPEDIATYYCLQYDEFPYTFGGGTKLEIKR
Regarding B9, the binding result in assay [3] is “no binding (tested: 30 µg/ml)”. Also, the Kd in assay [1] worked out at 0.565 nM.

B10: SIRP12 (antibody, human IgG4 S228P, kappa, V domains shown)
VH: QVQLVQSGAEVKKPGASVKVSCKASGYSFTDYFLNWVRQAPGQGLEWMGRINPYNGDSFINQNFRDRVTMTRDTSTSTVYMELSSLRSEDTAVYYCARGGYDGYFIAYFDYWGAGTTVTVSS
VL: DIQMTQSPSSLSASVGDRVTITCKASQDINSHLSWYQQKPGKAPKLLIYRANRLATGVPSRFSGSGSGTDFTFTISSLEYEDIATYYCLQYDEFPYTFGGGTKLEIKR
Consider B10, for which the results for the Kd in assay [1] and in assay [2] were 0.165 nM and more than 12 nM, respectively.

B11: SIRP23 (antibody, human IgG4 S228P, kappa, V domains shown)
VH: EVQLQQSGPDLVKPGASVKISCKASGYSFTDYFLNWVKQSHGKSLEWIGRINPYNGDSFINQNFRDKATLTVDKSSTTAHMDLLSLTSEDSAIYYCGRGGYDGYFIAYFDYWGQGSLVTVSA
VL: DIKMTQSPSSMYASLGQRVTITCKASQDINSHLSWFQEKPGKSPKTLIYRANRLADGVPSRFSGSGSGQDYFLTISSLEYEDVGIYYCLQYDEFPYTFGGGTKLEIKR
For B11, the Kd in assay [1] came out at 0.164 nM; in assay [2] it was 0.225 nM.

B12: SIRP10 (antibody, V domains shown)
VH: EVQLQESGAELVRPGTSVKMSCKAAGYTFSNYLIGWIKQRPGHGLEWIGDIYPGDNNTNYNEKFRVKATLTADTSSNTAYMHLTSLTSEDSAIYYCAGGTDYDGFANWGQGTLVTVSA
VL: ENVLTQSPAIMSASLGEKVTMSCRASSSVNYMYWYQQKSDASPKLWIYYTSKLAPGVPARFSGSGSGNSYSLTISSMEGEDAATYYCQQFTSSPFTFGSGTKLEIK
On to B12, for which the Kd in assay [1] and in assay [2] was more than 10 nM in each case.

B13: SIRP6 (antibody, V domains shown)
VH: QIQLVQSGPELKKPGETVKISCKASGYTFTDYGVNWVKQGPGKDLQWMGWVNTNTRESTYVEDFKGRFAFSLETSASTAYLQINNLKNEDSSTYFCARGAYDAYYYYYGMDYWGQGTSVTVSS
VL: DIQMTQSPASLSASVGETVTITCRASENIYSYLTWYKQKQGKSPQLLVYNAKTLAEGVPSRFSGSGSGTQFSLKINSLQPEDFGSYYCQHHYGSPRTFGGGTKLEIK
B13: the values for the Kd in assay [1] and in assay [2] were 0.131 nM and 0.183 nM, respectively. This molecule returned an IC50 in assay [4] of 0.86 nM.
